For assay [1], the target named is 3XFLAG-BAP (bacterial alkaline phosphatase with the triple FLAG sequence at the N-terminus) (E. coli) [phosphatase: P00634]. Nature of the assay: dot blot.
Assay [2] shares this target. Briefly: western blot, M2 at 10 ug/ml, chemiluminescence.
For assay [3] the target is unchanged. Briefly: ELISA.
Assay [4] shares this target. Nature of the assay: western blot, M2 at 10 ug/ml, chemiluminescence, longer exposure.
Assay [5] relates to anti-FLAG M2 affinity gel. Briefly: Competitive elution from anti-FLAG M2 affinity gel. Conditions: for competitive elution from anti-FLAG M2 affinity gel using 3XFLAG peptide: competitor: 3XFLAG peptide. The format is binding.
In a further assay the test system is M2 antiFLAG antibody. Briefly: Western blot of purified FLAG-BAP probed with M2 anti-FLAG antibody, chemiluminescent detection. The format is binding. As to the method:
E. coli BL21 (DE3) were transformed with the expression plasmid containing the triple FLAG BAP construct made according to the methods of Example 1. Cells were grown in terrific broth containing 100 μg/ml ampicillin at 37° C. with agitation. The culture was grown to an OD600=4.0 and then induced with IPTG at a final concentration of 1 mM. The cell culture was grown for an additional 3 hours at 37° C. and then harvested by centrifugation. The cell pellet was resuspended in 50 mM Tris-HCl. pH 8.0 and the cells disrupted by sonication and cellular debris removed by centrifugation. The supernatant was applied to M2 affinity gel was equilibrated with 50 mM Tris-HCI pH 8.0, 150 mM NaCl (TBS). The resin was washed with 20 bed volumes of TBS and then the triple FLAG BAP was eluted with five column volumes of 0.1 M Glycine pH 3.5.
The eluted protein was pooled and adjusted to pH 7.5 with 1.0 M Tris-HCl pH 8.0. Protein content was determined by both Bradford and by absorbance using ε280=0.7ml/mg.
Purified 3XFLAG-BAP and N-BAP were diluted with to 2X Laemlli buffer, boiled for five minutes and then placed on ice. Samples were resolved on a 15% SDS-PAGE using the method of Laemlli (Laemli, V., Nature, 227:680–685 (1970)) and then transferred to nitrocellulose membranes. The membrane was blocked with phosphate buffered saline containing 3% non-fat dry milk for 1 hour and then rinsed three times in TBS, 0.05% Tween 20 (TBS-T). The membrane was incubated with M2 antibody at a final concentration of 10 μg/ml for 30 minutes in TBS-T and then rinsed three times in TBS-T. The membrane was then incubated for 30 minutes with a goat […] IgG (whole molecule) Horseradish peroxidase(HRP) conjugate diluted 1:10,000 in TBS-T then rinsed three times in TBS-T. The FLAG tagged protein were detected with the HRP conjugates and visualized by chemilumenescent detection using ECL (Amersham) and Kodak X-Omat MR film according to manufacturer's directions with exposures from 1 to 30 minutes.

The test system of the next assay is FLAG M2 antibody. Nature of the assay: Isothermal titration calorimetry of M2 antibody binding to FLAG epitopes. Conditions: 25° C., PBS containing 0.05% sodium azide, for 3XFLAG system r>1000, accurate Ka can not be determined, in M-1 (unit assumed). As to the method: Thermodynamic analysis of the M2 antibody binding to the FLAG epitopes was measured by isothermal titration calorimetry using an OMEGA calorimeter (Microcal). All samples were dialyzed against PBS containing 0.05% sodium azide and degassed prior to the measurements. All measurements were made at 25° C. The concentration of M2 antibody was between 15 and 50 uM depending upon which samples were used. The concentration of the titrants were 605 uM for the 1X BAP, 1110 uM for the 1X FLAG peptide, 400 uM for the 3X BAP, and 580 uM for the 3XFLAG peptide. Injections were carried out every 2.5 to 3.0 minutes which was sufficient for baseline to be achieved with injection volumes ranging from 4 to 11 uL. Injections were carried out over a 4 to 10 second period while stirring at 400 rpm. Data analysis and fitting were performed using the Origin software supplied by MicroCal. The enthalpies were obtained by numerical integration of the data and subtraction of the heats of dilution. Values of Ka, n the number of binding sites were determined by fitting the data to a theoretical curve with only the enthalpy was held constant during the fitting process.

As for anti-FLAG M2 monoclonal antibody, the fold increase in detection against single FLAG in assay [1] and in assay [3] was over 10 fold throughout. Moreover, the results for the amount detected in assay [2] and in assay [4] were 500 picograms and 100 picograms, respectively. Besides, the fold increase in detection limit against single FLAG-BAP in assay [2] turned out to be 10 fold.

B1: 3XBAP: triple FLAG version of bacterial alkaline phosphatase expressed in E. coli from p3XFLAG-ATS-BAP and purified on M2 affinity gel (protein)
chain: MDYKDHDGDYKDHDIDYKDDDDKMPVLENRAAQGDITAPGGARRLTGDQTAALRDSLSDKPAKNIILLIGDGMGDSEITAARNYAEGAGGFFKGIDALPLTGQYTHYALNKKTGKPDYVTDSAASATAWSTGVKTYNGALGVDIHEKDHPTILEMAKAAGLATGNVSTAELQDATPAALVAHVTSRKCYGPSATSEKCPGNALEKGGKGSITEQLLNARADVTLGGGAKTFAETATAGEWQGKTLREQAQARGYQLVSDAASLNSVTEANQQKPLLGLFADGNMPVRWLGPKATYHGNIDKPAVTCTPNPQRNDSVPTLAQMTDKAIELLSKNEKGFFLQVEGASIDKQDHAANPCGQIGETVDLDEAVQRALEFAKKEGNTLVIVTADHAHASQIVAPDTKAPGLTQALNTKDGAVMVMSYGNSEEDSQEHTGSQLRIAAYGPHAANVVGLTDQTDLFYTMKAALGLK
In the case of B1, the “competitive elution from anti-FLAG M2 affinity gel using 3XFLAG peptide” value in assay [5] is reported as “can be competitively eluted”. For the same molecule, the “elution from anti-FLAG M2 affinity gel by competition with the original FLAG peptide” value in assay [5] (competitor: original FLAG peptide) is “cannot be eluted”. In addition, the “amount of purified protein detected” value turned out to be 500 picograms with M2 antiFLAG antibody (exposures as short as 1 minute) and 100 picograms in the assay on M2 antiFLAG antibody (increased exposure time, with increased background). For the same molecule, the “increase in detection limit compared to the single FLAG-BAP fusion protein” value in the assay with M2 antiFLAG antibody (western blot, M2 antibody, chemiluminescence) is 10 fold. Besides, in the assay with FLAG M2 antibody, the “Ka (association constant)” value turned out to be 2.09E+08.

B2: 1XBAP: bacterial alkaline phosphatase fusion protein containing the traditional FLAG epitope (DYKDDDDK), expressed in E. coli and purified (protein)
chain: DYKDDDDKMPVLENRAAQGDITAPGGARRLTGDQTAALRDSLSDKPAKNIILLIGDGMGDSEITAARNYAEGAGGFFKGIDALPLTGQYTHYALNKKTGKPDYVTDSAASATAWSTGVKTYNGALGVDIHEKDHPTILEMAKAAGLATGNVSTAELQDATPAALVAHVTSRKCYGPSATSEKCPGNALEKGGKGSITEQLLNARADVTLGGGAKTFAETATAGEWQGKTLREQAQARGYQLVSDAASLNSVTEANQQKPLLGLFADGNMPVRWLGPKATYHGNIDKPAVTCTPNPQRNDSVPTLAQMTDKAIELLSKNEKGFFLQVEGASIDKQDHAANPCGQIGETVDLDEAVQRALEFAKKEGNTLVIVTADHAHASQIVAPDTKAPGLTQALNTKDGAVMVMSYGNSEEDSQEHTGSQLRIAAYGPHAANVVGLTDQTDLFYTMKAALGLK
On to B2, for which the “competitive elution from anti-FLAG M2 affinity gel using 3XFLAG peptide” value in assay [5] is on record as “can be competitively eluted”. Besides, the “Ka (association constant)” value in the assay on FLAG M2 antibody came to 1.69E+07.

(Values after patent publication US7094548B2, “Purification of recombinant proteins fused to multiple epitopes” (Sigma-Aldrich Co., priority 1999, dated 2006).)
